# According to paper doi:10.1101/2024.11.03.621760 (bioRxiv, 2024):
# B1: HALC3_919 (designed binder)
# chain: MSGSEELLEELRELLERLQELLELIEQGKITPEQLREAIALLIEVLQILYEALRELAEQLQRLREELG
# notes: also called HALC3_919 trimerization domain; source: E. coli, purified (Ni-NTA, SNAC cleavage, SEC)
# Molecular target: the molecule itself
# Test: crystal structure; HALC3_919 alone, 2.1 Å, space group P 21 3, PDB 9C7Z
protein,measurement,value
B1,stoichiometry N,3
